Data set [1] is described as follows: Western blot of yeast culture supernatant, 30°C. The following applies: glycan lost; control: wild-type full-length GA. For orientation: In western blotting, separated proteins are transferred to a membrane and probed.
The nature of data set [2]: extracellular GA activity of yeast cultures, 30°C. The following applies: glycan lost; control: wild-type full-length GA.

B1: Rhizopus oryzae glucoamylase (RoGA): Asn167 to Gln (protein)
parent chain: MQLFNLPLKVSFFLVLSYFSLLVSAASIPSSASVQLDSYNYDGSTFSGKIYVKNIAYSKKVTVIYADGSDNWNNNGNTIAASYSAPISGSNYEYWTFSASINGIKEFYIKYEVSGKTYYDNNNSANYQVSTSKPTTTTATATTTTAPSTSTTTPPSRSEPATFPTGNSTISSWIKKQEGISRFAMLRNINPPGSATGFIAASLSTAGPDYYYAWTRDAALTSNVIVYEYNTTLSGNKTILNVLKDYVTFSVKTQSTSTVCNCLGEPKFNPDASGYTGAWGRPQNDGPAERATTFILFADSYLTQTKDASYVTGTLKPAIFKDLDYVVNVWSNGCFDLWEEVNGVHFYTLMVMRKGLLLGADFAKRNGDSTRASTYSSTASTIANKISSFWVSSNNWIQVSQSVTGGVSKKGLDVSTLLAANLGSVDDGFFTPGSEKILATAVAVEDSFASLYPINKNLPSYLGNSIGRYPEDTYNGNGNSQGNSWFLAVTGYAELYYRAIKEWIGNGGVTVSSISLPFFKKFDSSATSGKKYTVGTSDFNNLAQNIALAADRFLSTVQLHAHNNGSLAEEFDRTTGLSTGARDLTWSHASLITASYAKAGAPAA
For B1, the expression_or_secretion entry in data set [1] was “decreases”.

B2: Rhizopus oryzae glucoamylase (RoGA): T165A (protein)
parent chain: MQLFNLPLKVSFFLVLSYFSLLVSAASIPSSASVQLDSYNYDGSTFSGKIYVKNIAYSKKVTVIYADGSDNWNNNGNTIAASYSAPISGSNYEYWTFSASINGIKEFYIKYEVSGKTYYDNNNSANYQVSTSKPTTTTATATTTTAPSTSTTTPPSRSEPATFPTGNSTISSWIKKQEGISRFAMLRNINPPGSATGFIAASLSTAGPDYYYAWTRDAALTSNVIVYEYNTTLSGNKTILNVLKDYVTFSVKTQSTSTVCNCLGEPKFNPDASGYTGAWGRPQNDGPAERATTFILFADSYLTQTKDASYVTGTLKPAIFKDLDYVVNVWSNGCFDLWEEVNGVHFYTLMVMRKGLLLGADFAKRNGDSTRASTYSSTASTIANKISSFWVSSNNWIQVSQSVTGGVSKKGLDVSTLLAANLGSVDDGFFTPGSEKILATAVAVEDSFASLYPINKNLPSYLGNSIGRYPEDTYNGNGNSQGNSWFLAVTGYAELYYRAIKEWIGNGGVTVSSISLPFFKKFDSSATSGKKYTVGTSDFNNLAQNIALAADRFLSTVQLHAHNNGSLAEEFDRTTGLSTGARDLTWSHASLITASYAKAGAPAA
For B2, in data set [2], the enzymatic_activity result is “no change”. For the same protein, in data set [1], the expression_or_secretion result was “no change”.

For the origin of these results see publication PMC1933424.
